Patent US20250136687A1
Several values for one entry are separate records, joined by “and”; a condition that tells them apart may be missing. Equal entries are not always repeated. Where two headings read alike, the source gives them in different places.

How the values were obtained:
[1] = target: human CD3 on the cell surface (Jurkat cells, expanded human T cells, Jurkat-Lucia NFAT cells, human PBMC) (human) (UniProt P07766); assay: FACS, Jurkat cells
[2] = target: human CD3 on the cell surface (Jurkat cells, expanded human T cells, Jurkat-Lucia NFAT cells, human PBMC) (human) (UniProt P07766); assay: FACS, Jurkat cells; remark: listed apart in the source
[3] = target: human CD3 on the cell surface (Jurkat cells, expanded human T cells, Jurkat-Lucia NFAT cells, human PBMC) (human) (UniProt P07766); assay: FACS, Jurkat cells; remark: listed apart in the source
human CD3ε/δ-His (human) [4] = target: human CD3ε/δ-His (human) (UniProt P07766); assay: ELISA, coated antigen
[5] = target: monkey CD3ε protein (monkey) (UniProt Q95LI5); assay: ELISA, coated antigen
[6] = target: monkey CD3ε/δ-His (monkey) (UniProt Q95LI5); assay: ELISA, coated antigen
[7] = target: recombinant human CD3ε-ECD His protein (human) (UniProt P07766); assay: ELISA, coated antigen
[8] = target: recombinant human CD3ε-ECD His protein (human) (UniProt P07766); assay: ELISA, coated antigen; remark: listed apart in the source
[9] = target: human CD3 on the cell surface (Jurkat cells, expanded human T cells, Jurkat-Lucia NFAT cells, human PBMC) (human) (UniProt P07766); assay: cell-based or functional assay
[10] = target: human CD3 on the cell surface (Jurkat cells, expanded human T cells, Jurkat-Lucia NFAT cells, human PBMC) (human) (UniProt P07766); assay: cell-based or functional assay; remark: listed apart in the source
[11] = target: human CD3 on the cell surface (Jurkat cells, expanded human T cells, Jurkat-Lucia NFAT cells, human PBMC) (human) (UniProt P07766); assay: cell-based or functional assay; remark: listed apart in the source
[12] = target: human CD3 on the cell surface (Jurkat cells, expanded human T cells, Jurkat-Lucia NFAT cells, human PBMC) (human) (UniProt P07766); assay: cell-based or functional assay; remark: listed apart in the source
[13] = target: human CD3 on the cell surface (Jurkat cells, expanded human T cells, Jurkat-Lucia NFAT cells, human PBMC) (human) (UniProt P07766); assay: FACS, expanded human T cells
[14] = target: human CD3 on the cell surface (Jurkat cells, expanded human T cells, Jurkat-Lucia NFAT cells, human PBMC) (human) (UniProt P07766); assay: FACS, expanded human T cells; remark: listed apart in the source
[15] = target: human CD3 on the cell surface (Jurkat cells, expanded human T cells, Jurkat-Lucia NFAT cells, human PBMC) (human) (UniProt P07766); assay: FACS, expanded human T cells; remark: listed apart in the source
[16] = target: human CD3 on the cell surface (Jurkat cells, expanded human T cells, Jurkat-Lucia NFAT cells, human PBMC) (human) (UniProt P07766); assay: FACS, expanded human T cells; remark: listed apart in the source
[17] = target: cynomolgus monkey CD3 on the surface of expanded monkey T cells (cynomolgus monkey) (UniProt Q95LI5); assay: FACS, expanded monkey T cells
[18] = target: cynomolgus monkey CD3 on the surface of expanded monkey T cells (cynomolgus monkey) (UniProt Q95LI5); assay: FACS, expanded monkey T cells; remark: listed apart in the source
[19] = target: cynomolgus monkey CD3 on the surface of expanded monkey T cells (cynomolgus monkey) (UniProt Q95LI5); assay: FACS, expanded monkey T cells; remark: listed apart in the source
[20] = target: cynomolgus monkey CD3 on the surface of expanded monkey T cells (cynomolgus monkey) (UniProt Q95LI5); assay: FACS, expanded monkey T cells, 4 nM antibody
[21] = target: cynomolgus monkey CD3 on the surface of expanded monkey T cells (cynomolgus monkey) (UniProt Q95LI5); assay: FACS, expanded monkey T cells, 20 nM antibody
[22] = target: cynomolgus monkey CD3 on the surface of expanded monkey T cells (cynomolgus monkey) (UniProt Q95LI5); assay: FACS, expanded monkey T cells, 100 nM antibody
human CD3ε/δ-His (human) [23] = target: human CD3ε/δ-His (human) (UniProt P07766); assay: ELISA, coated antigen, hybridoma screening
[24] = target: monkey CD3ε/δ-His (monkey) (UniProt Q95LI5); assay: ELISA, coated antigen, hybridoma screening

human CD3ε/δ-His (human), sequence (P07766 23-126, stated change not applied, form in doubt, chain 1 of 2): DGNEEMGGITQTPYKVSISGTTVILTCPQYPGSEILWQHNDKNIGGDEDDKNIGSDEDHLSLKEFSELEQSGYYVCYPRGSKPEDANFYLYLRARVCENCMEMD
human CD3ε/δ-His (human), sequence (P04234 22-105, stated change not applied, form in doubt, chain 2 of 2, further chain): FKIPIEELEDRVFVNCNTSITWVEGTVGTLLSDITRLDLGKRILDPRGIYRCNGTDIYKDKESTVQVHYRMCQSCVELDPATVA
human CD3 on the cell surface (Jurkat cells, expanded human T cells, Jurkat-Lucia NFAT cells, human PBMC) (human), sequence (P07766 23-207, chain 1 of 3): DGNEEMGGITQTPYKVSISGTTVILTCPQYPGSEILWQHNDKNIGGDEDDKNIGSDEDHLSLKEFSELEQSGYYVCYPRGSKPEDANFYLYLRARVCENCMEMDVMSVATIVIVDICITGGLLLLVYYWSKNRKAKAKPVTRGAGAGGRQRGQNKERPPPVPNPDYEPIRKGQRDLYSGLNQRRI
human CD3 on the cell surface (Jurkat cells, expanded human T cells, Jurkat-Lucia NFAT cells, human PBMC) (human), sequence (P04234 22-171, chain 2 of 3, further chain): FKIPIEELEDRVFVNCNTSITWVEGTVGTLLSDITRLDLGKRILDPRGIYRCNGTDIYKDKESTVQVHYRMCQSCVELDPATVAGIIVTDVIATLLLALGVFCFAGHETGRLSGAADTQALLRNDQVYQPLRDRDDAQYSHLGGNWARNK
human CD3 on the cell surface (Jurkat cells, expanded human T cells, Jurkat-Lucia NFAT cells, human PBMC) (human), sequence (P09693 23-182, chain 3 of 3, further chain): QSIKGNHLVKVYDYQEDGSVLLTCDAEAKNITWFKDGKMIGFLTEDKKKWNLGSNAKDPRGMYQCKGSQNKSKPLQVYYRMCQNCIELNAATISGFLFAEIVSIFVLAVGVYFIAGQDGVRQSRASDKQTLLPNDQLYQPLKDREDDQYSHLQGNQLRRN
monkey CD3ε/δ-His (monkey), sequence (Q95LI5 22-117, stated change not applied, form in doubt, chain 1 of 2): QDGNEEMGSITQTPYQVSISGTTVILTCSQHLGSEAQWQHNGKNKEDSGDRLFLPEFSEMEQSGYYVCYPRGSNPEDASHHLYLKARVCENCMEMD
monkey CD3ε/δ-His (monkey), sequence (Q95LI8 22-105, stated change not applied, form in doubt, chain 2 of 2, further chain): as the sequence (P04234 22-105, stated change not applied, form in doubt, chain 2 of 2, further chain) above, with I5V, N15K, I20V, S32T, D33N, I34N, T64A, S74N, V83L counted along it
cynomolgus monkey CD3 on the surface of expanded monkey T cells (cynomolgus monkey), sequence (Q95LI5 22-198, chain 1 of 3): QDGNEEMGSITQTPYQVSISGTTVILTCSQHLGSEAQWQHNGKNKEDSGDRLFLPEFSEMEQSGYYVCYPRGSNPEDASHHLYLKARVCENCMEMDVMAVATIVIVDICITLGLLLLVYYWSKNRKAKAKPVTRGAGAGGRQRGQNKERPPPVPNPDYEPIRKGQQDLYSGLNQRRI
cynomolgus monkey CD3 on the surface of expanded monkey T cells (cynomolgus monkey), sequence (Q95LI8 22-171, chain 2 of 3, further chain): as the sequence (P04234 22-171, chain 2 of 3, further chain) above, with I5V, N15K, I20V, S32T, D33N, I34N, T64A, S74N, V83L, H141R counted along it
cynomolgus monkey CD3 on the surface of expanded monkey T cells (cynomolgus monkey), sequence (Q95LI7 23-181, chain 3 of 3, further chain): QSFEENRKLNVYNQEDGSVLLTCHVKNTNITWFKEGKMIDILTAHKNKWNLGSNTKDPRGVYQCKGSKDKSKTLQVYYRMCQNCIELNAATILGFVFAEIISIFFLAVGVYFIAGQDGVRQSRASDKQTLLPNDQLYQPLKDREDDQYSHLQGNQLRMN
recombinant human CD3ε-ECD His protein (human), sequence (P07766 23-126): as the sequence (P07766 23-126, stated change not applied, form in doubt, chain 1 of 2) above
monkey CD3ε protein (monkey), sequence (Q95LI5 22-117 limits assumed): as the sequence (Q95LI5 22-117, stated change not applied, form in doubt, chain 1 of 2) above

## anti-hel-hIgG1 (negative control antibody against Hen Egg Lysozyme)
[1]
  MFI Max: 151 MFI
[2]
  MFI Max: 490 MFI
  Maximum fluorescence value Alexa 647: 108 MFI
[3]
  MFI Max: 182 MFI
Human CD3ε/δ-His (human) [4]
  max-OD450: 0.09 OD450
[5]
  max-OD450: 0.16 OD450
[6]
  max-OD450: 0.15 OD450
[7]
  max-OD450: 0.11 OD450
[8]
  max-OD450: 0.09 OD450
[9]
  Maximum response value (RLU): 1830 RLU
[10]
  Maximum response value (RLU): 2330 RLU
[11]
  Maximum response value (RLU): 4250 RLU
[12]
  Maximum response value (RLU): 3780 RLU
[13]
  EC50: 19.9 nM
  MFI Max: 823 MFI
  Maximum fluorescence value Alexa 647: 480 MFI
  max MFI: 2250 MFI
[14]
  MFI Max: 148 MFI
[15]
  MFI Max: 195 MFI
[16]
  MFI Max: 124 MFI
[17]
  MFI Max: 87 MFI
  Maximum fluorescence value Alexa 647: 299 MFI
  max MFI: 74 MFI
[18]
  MFI Max: 1570 MFI
[19]
  MFI Max: 195 MFI
[20]
  MFI at antibody concentration 4 nM: 64 MFI
[21]
  MFI at antibody concentration 20 nM: 80 MFI
[22]
  MFI at antibody concentration 100 nM: 170 MFI

## anti-hel-mIgG1 (negative control antibody against Hen Egg Lysozyme)
Human CD3ε/δ-His (human) [23]
  OD450: 0.05 OD450 and 0.04 OD450
[24]
  OD450: 0.07 OD450 and 0.04 OD450 and 0.05 OD450
